According to PMC11950179 (Nature Communications, 2025):

Molecular target: the molecule itself
Assay: cryo-EM structure

B1: human phosphorylase kinase β subunit (PHKB), phosphorylated (natural protein, UniProt Q93100 1-1093, looked up)
chain: MAGAAGLTAEVSWKVLERRARTKRSGSVYEPLKSINLPRPDNETLWDKLDHYYRIVKSTLLLYQSPTTGLFPTKTCGGDQKAKIQDSLYCAAGAWALALAYRRIDDDKGRTHELEHSAIKCMRGILYCYMRQADKVQQFKQDPRPTTCLHSVFNVHTGDELLSYEEYGHLQINAVSLYLLYLVEMISSGLQIIYNTDEVSFIQNLVFCVERVYRVPDFGVWERGSKYNNGSTELHSSSVGLAKAALEAINGFNLFGNQGCSWSVIFVDLDAHNRNRQTLCSLLPRESRSHNTDAALLPCISYPAFALDDEVLFSQTLDKVVRKLKGKYGFKRFLRDGYRTSLEDPNRCYYKPAEIKLFDGIECEFPIFFLYMMIDGVFRGNPKQVQEYQDLLTPVLHHTTEGYPVVPKYYYVPADFVEYEKNNPGSQKRFPSNCGRDGKLFLWGQALYIIAKLLADELISPKDIDPVQRYVPLKDQRNVSMRFSNQGPLENDLVVHVALIAESQRLQVFLNTYGIQTQTPQQVEPIQIWPQQELVKAYLQLGINEKLGLSGRPDRPIGCLGTSKIYRILGKTVVCYPIIFDLSDFYMSQDVFLLIDDIKNALQFIKQYWKMHGRPLFLVLIREDNIRGSRFNPILDMLAALKKGIIGGVKVHVDRLQTLISGAVVEQLDFLRISDTEELPEFKSFEELEPPKHSKVKRQSSTPSAPELGQQPDVNISEWKDKPTHEILQKLNDCSCLASQAILLGILLKREGPNFITKEGTVSDHIERVYRRAGSQKLWLAVRYGAAFTQKFSSSIAPHITTFLVHGKQVTLGAFGHEEEVISNPLSPRVIQNIIYYKCNTHDEREAVIQQELVIHIGWIISNNPELFSGMLKIRIGWIIHAMEYELQIRGGDKPALDLYQLSPSEVKQLLLDILQPQQNGRCWLNRRQIDGSLNRTPTGFYDRVWQILERTPNGIIVAGKHLPQQPTLSDMTMYEMNFSLLVEDTLGNIDQPQYRQIVVELLMVVSIVLERNPELEFQDKVDLDRLVKEAFNEFQKDQSRLKEIEKQDDMTSFYNTPPLGKRGTCSYLTKAVMNLLLEGEVKPNNDDPCLIS
modifications: phosphorylated by PKAc; phosphoserine at Ser12, Ser27 and Ser701
  binding result: binds
